Results on 22 sequences are retold here after the supplement of paper PMC9170038.

In the series the test system is MS2 coat protein. Kind of series: apparent KD of MS2 coat protein; designed switch direction (-1 OFF switch, 1 ON switch): -1; higher = weaker reporter binding. In outline:
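Designed RNA switches were transcribed on Illumina chips by stalled E. coli RNA polymerase and titrated with SNAP-549-labelled MS2 coat protein from 0.7 or 1.5 nM, doubling to 3 µM. Step length ran from 0.8–1.5 h at the lowest concentration to 10–20 min at the highest. The apparent KD is the median over clusters for each design, from curve-fitted normalised cluster fluorescence.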

The mark [1] stands for this setting: Eterna round: R95, input ligand: FMN 200 uM.
Where [2] appears, read: Eterna round: R95, input ligand: microRNA oligo, concentration not stated.
Setting [3] is: Eterna round: R95, input ligand: none.
Where [4] appears, read: input ligand: microRNA oligo, concentration not stated.

Take “GUUAACGUAGGAUAUUAGUACAUGAACAUGAGGAUCACCCAUGUGAGGUAGGUCUAAGAAUAAGAAGGGCGAAGAA [EX5 #27] (Eterna round: R97, puzzle: Exclusion 5)”: the “apparent KD of MS2 coat protein” value (input ligand: FMN 200 uM) came to 108 nM and the “apparent KD of MS2 coat protein” value (input ligand: none) came to 185 nM.
Consider “AAACGGCGGAUCGUGGCUUUUUGCUCGUCUUGUGCUACAACAUGAGGAUCACCCAUGUAGAGGUGAUCCGUUGUAAA [Grok-var2-18 mod JAL] (puzzle: Sensor v3, turn-off variant 2)”, for which the “apparent KD of MS2 coat protein” value reads like this: under setting [1], 28 nM; under setting [2], 17.1 nM; under setting [3], 38.3 nM.
“UUAAUGUGAGGAUAUCAGGUGUGCUAGCGUACUGGUACAUCUGAGAAGGCACAUGAGGAUCACCCAUGUUCUUC [JL-ex4-3.30 Brourd mod] (puzzle: Exclusion 4)”: under setting [2], the “apparent KD of MS2 coat protein” value turned out to be 32.5 nM.
Consider “UAUUAUGCAAGCAGGUCCCACAUGAGGAUCACCCAUGUGCUCGUCUUAUAAGGUACUGUGACGAAAGUCACGGUACC [Elimod 15 - Jieux - Sensor, turn-off variant 1] (Eterna round: R97, puzzle: Sensor, turn-off variant 1)”, for which the “apparent KD of MS2 coat protein” value was determined as 37.6 nM (input ligand: FMN 200 uM) and 37.9 nM (input ligand: none).
Regarding “AGUUACUACAAGCUUUGGGACAUGAGGAUCACCCAUGUUCGUCUUAUUGUAGUAGGUACGCUGACGUACCUACUACA [Mat - Sensor v3 - turn-off var 1 - JL Mod - D7] (puzzle: Sensor v3, turn-off variant 1)”, the “apparent KD of MS2 coat protein” value turned out to be 14.8 nM under setting [1], 39.6 nM under setting [2] and 13.8 nM under setting [3].
The corresponding values for “CAGUACUGAGGAUAUACAUGAGGAUCACCCAUGUGUUCCAGCUAGGAAACUAGCAAAUGUAGAAGGCAGUACUG [salish99_ex3_r3_089 (STABLE!)] (puzzle: Exclusion 3)” are 94.1 nM, 217 nM and 234 nM.
As to “GGGUAGUUAGGAUAUCAGACUAGCUGCUCAACAGCAGCAGCUGAGAAGGGACUUGAGGAUCACCCAAGUGGAAG [Ceisis] (Eterna round: R97, puzzle: Exclusion 4)”, the “apparent KD of MS2 coat protein” value (input ligand: FMN 200 uM) stood at 64.9 nM and the “apparent KD of MS2 coat protein” value (input ligand: none) is 70.1 nM.
Turning to “CUGAGCAGACGGAAAUCCAACAUGAGGAUCACCCAUGUCUCAAAAGCUUUUUGCUCGUCUUAUCCUCCUCUGUUCUC [Tiardia] (puzzle: Sensor v3, turn-off variant 1)”, the “apparent KD of MS2 coat protein” value worked out at 24.1 nM under setting [1], 138 nM under setting [2] and 21.1 nM under setting [3].
Take “GCAGCUUAGUUAACAGACUGUUACAUGAGGAUCACCCAUGUGCAGGAUAUGGUCUGGAUUACAGGCCAGAAGGGUACAAGCUGC [Eli exng3 - 016] (Eterna round: R96, puzzle: Exclusion NG 3)”: the “apparent KD of MS2 coat protein” value (input ligand: FMN 200 uM) came to 12.8 nM, the “apparent KD of MS2 coat protein” value under setting [4] is 9.37 nM and the “apparent KD of MS2 coat protein” value (input ligand: none) is 14.2 nM.
Consider “GGACCGAUUGUUAGGAUAUCGCACGGCUAGCCCAGCGAGAAGGGACAUGAGGAUCACCCAUGUGCGCUUAGCAC [Eternabot (L1) Solution 50] (Eterna round: R97, puzzle: Brourd's mod of Exclusion 4)”, for which the “apparent KD of MS2 coat protein” value was 156 nM (input ligand: FMN 200 uM) and 155 nM (input ligand: none).
“UCUCGCGGGCAAGGAUAUCCUACGUUGUUCUGGCCCGGGCAUGUUACAUGAGGAUCACCCAUGUGGGAGAAGGUGCGCCAGGGC [Design 36] (Eterna round: R96, puzzle: Exclusion NG 2)”: the “apparent KD of MS2 coat protein” value turned out to be 36.8 nM (input ligand: FMN 200 uM), 28.2 nM under setting [4] and 36.7 nM (input ligand: none).
In the case of “AAUUUGCAAGCGAGAUCCCACAUGAGGAUCACCCAUGUGCUCGUCUUAUAAGGUACUGUGACGAAAGUCACGGUACC [Mat - Sensor, turn-off var - Eli Mod - D92] (Eterna round: R97, puzzle: Sensor, turn-off variant 1)”, the “apparent KD of MS2 coat protein” value worked out at 16.4 nM (input ligand: FMN 200 uM) and 12.9 nM (input ligand: none).
Turning to “UGCGUUAGAGGAUAUACGUAGAACUAGGUUCAUGUAAAACUACAUGAGGAUCACCCAUGUAGAAGGCUAGCGCU [Mat - Exclusion 2 - JL Mod - D43] (Eterna round: R97, puzzle: Exclusion 2)”, the “apparent KD of MS2 coat protein” value was found to be 20.4 nM (input ligand: FMN 200 uM) and 15.4 nM (input ligand: none).
As to “GAUGUGGGUUUUCAGAGUAACAUGAGGAUCACCCAUGUAGAAGUUGAAGGUAUCAAGCGAAUGGCUCGUCAAAUGUG [JR_SV3TOV1_Sub049] (puzzle: Sensor v3, turn-off variant 1)”, the “apparent KD of MS2 coat protein” value stood at 229 nM under setting [1], 182 nM under setting [2] and 287 nM under setting [3].
For “UGAUCAAAUGUCAGGAUAUGCUAUUAGAAAUAAUAGCAGAAGGGACAUGAGGAUCACCCAUGUCUUGUCGAUUU [Magic-01] (puzzle: Brourd's mod of Exclusion 4)” the same measures were 93.5 nM, 19.2 nM and 20.1 nM.
“AAGAUGCGGGUAGGAUAUGGAGAGAAAGAAAGACCAGAAGGAUUGGUCAUAUAACAUGAGGAUCACCCAUGUAUAUGUUGCGAA [EX ng 1 5] (Eterna round: R96, puzzle: Exclusion NG 1)”: the “apparent KD of MS2 coat protein” value (input ligand: FMN 200 uM) worked out at 19.6 nM, the “apparent KD of MS2 coat protein” value under setting [4] turned out to be 16.2 nM and the “apparent KD of MS2 coat protein” value (input ligand: none) came to 21 nM.
As to “AAGCACAGAGGAUAUACAAUCCUCAGUGGGUCUGGCGAGCCACAUGAGGAUCACCCAUGUAGAAGGCUGGGCUC [Xezaoron] (puzzle: Exclusion 2)”, under setting [2], the “apparent KD of MS2 coat protein” value came out at 11 nM.
On to “AUAAUUAAUCGAGGAUAUCAGCACGUGUAGUGCUGAGAAGGCGACAUGAGGAUCACCCAUGUGAUCAAUUAAUAUUAAUAUUAU [ENG1/11-C3] (Eterna round: R96, puzzle: Exclusion NG 1)”, for which the “apparent KD of MS2 coat protein” value was 1330 nM (input ligand: FMN 200 uM), 565 nM under setting [4] and 866 nM (input ligand: none).
Regarding “GUAGAGUCAGGAUAUACGAGAUCGAAAGAUCAAAGAUUCCUACAUGAGGAUCACCCAUGUAGAAGGGACUCUAC [Eli x2 4.123] (Eterna round: R97, puzzle: Exclusion 2)”, the “apparent KD of MS2 coat protein” value is, setting by setting: (input ligand: FMN 200 uM) 16 nM; (input ligand: none) 15.6 nM.
For “GCAUCGUGAGGAUAUACAUGAGGAUCACCCAUGUGGCGGAUCUACCAGCCAGCAAAAUGUAGAAGGCAUUGCUU [Eternabot (L2) Solution 19] (Eterna round: R97, puzzle: Exclusion 3)” the same measures were 123 nM and 142 nM.
In the case of “UUCCUGUCAGGAUAUGACUAGAUGCACGAAAGUGUGUUUAGUUAGAAGGGACAUGAGGAUCACCCAUGUAGUCC [Bring Us a Shrubbery-18] (puzzle: Exclusion 4)”, the “apparent KD of MS2 coat protein” value under setting [2] came out at 20.9 nM.
On to “CCCAGAUAAGGAUAUUGAAGGUUCGACAUGAGGAUCACCCAUGUUAUGUUGGAAAAGGGACAAGAAGGUAUGAAAA [salish99_ex5_r4_216] (Eterna round: R97, puzzle: Exclusion 5)”, for which the “apparent KD of MS2 coat protein” value came out at 31.2 nM (input ligand: FMN 200 uM) and 33.1 nM (input ligand: none).
